Assay results as given in patent publication US20260049160A1 (Hoffmann-La Roche, published 2026).

What was measured:
human VEGF-A-121-His = molecular target: T1, human VEGF-A-121-His (human, UniProt P15692-9 27-147); assay: SPR (Biacore T200), VEGF-A-121-His captured via anti-His, antibody in solution, 1:1 Langmuir
T1 construct: also called VEFG-A-121-His; not shown: His tag
T1 sequence (looked up): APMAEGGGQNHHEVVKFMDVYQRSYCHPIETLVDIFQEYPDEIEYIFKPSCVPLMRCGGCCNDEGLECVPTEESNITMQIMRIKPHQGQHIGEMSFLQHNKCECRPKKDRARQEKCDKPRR

human Ang-2-RBD-Fc = molecular target: T2, human Ang-2-RBD-Fc (human, UniProt O15123 275-496, limits assumed); assay: SPR (Biacore T200), antibody captured via anti-human F(ab')2, Ang2-RBD-Fc in solution, apparent KD, 1:1 Langmuir
T2 construct: domain: RBD; not shown: Fc part
T2 sequence (looked up): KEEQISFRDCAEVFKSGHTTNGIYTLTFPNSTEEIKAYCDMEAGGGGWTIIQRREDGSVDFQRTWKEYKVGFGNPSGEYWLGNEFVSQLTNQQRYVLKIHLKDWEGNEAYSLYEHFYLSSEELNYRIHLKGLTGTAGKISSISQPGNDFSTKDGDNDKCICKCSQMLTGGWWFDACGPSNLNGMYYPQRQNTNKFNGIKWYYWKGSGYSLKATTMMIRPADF

Binder | Kd (human VEGF-A-121-His) | Kd (human Ang-2-RBD-Fc)
Ang2VEGF-0273 (bispecific antibody, human IgG1, kappa, Bivalent CrossMab, non-crossed ANG2 arm and VH/VL-crossed VEGF arm; wild type CH1/CL interface (control)) light 1: QPGLTQPPSVSVAPGQTARITCGGNNIGSKSVHWYQQKPGQAPVLVVYDDSDRPSGIPERFSGSNSGNTATLTISRVEAGDEADYYCQVWDSSSDHYVFGTGTKVTVLRTVAAPSVFIFPPSDEQLKSGTASVVCLLNNFYPREAKVQWKVDNALQSGNSQESVTEQDSKDSTYSLSSTLTLSKADYEKHKVYACEVTHQGLSSPVTKSFNRGEC heavy 1: not shown heavy 2: not shown light 2: EVQLVESGGGLVQPGGSLRLSCAASGYTFTNYGMNWVRQAPGKGLEWVGWINTYTGEPTYAADFKRRFTFSLDTSKSTAYLQMNSLRAEDTAVYYCAKYPHYYGSSHWYFDVWGQGTLVTVSSASVAAPSVFIFPPSDEQLKSGTASVVCLLNNFYPREAKVQWKVDNALQSGNSQESVTEQDSKDSTYSLSSTLTLSKADYEKHKVYACEVTHQGLSSPVTKSFNRGEC | 6 nM | 15 nM
Ang2VEGF-0283 (bispecific antibody, human IgG1, lambda, Bivalent CrossMab; knobs-into-holes) light 1: QPGLTQPPSVSVAPGQTARITCGGNNIGSKSVHWYQQKPGQAPVLVVYDDSDRPSGIPERFSGSNSGNTATLTISRVEAGDEADYYCQVWDSSSDHYVFGTGTKVTVLGQPKAAPSVTLFPPSSKKLQANKATLVCLISDFYPGAVTVAWKADSSPVKAGVETTTPSKQSNNKYAASSYLSLTPEQWKSHRSYSCQVTHEGSTVEKTVAPTECS heavy 1: not shown heavy 2: not shown light 2: EVQLVESGGGLVQPGGSLRLSCAASGYTFTNYGMNWVRQAPGKGLEWVGWINTYTGEPTYAADFKRRFTFSLDTSKSTAYLQMNSLRAEDTAVYYCAKYPHYYGSSHWYFDVWGQGTLVTVSSASVAAPSVFIFPPSDEQLKSGTASVVCLLNNFYPREAKVQWKVDNALQSGNSQESVTEQDSKDSTYSLSSTLTLSKADYEKHKVYACEVTHQGLSSPVTKSFNRGEC | 4 nM | 15 nM
Ang2VEGF-0396 (bispecific antibody, human IgG1, kappa, Bivalent CrossMab; knobs-into-holes) light 1: QPGLTQPPSVSVAPGQTARITCGGNNIGSKSVHWYQQKPGQAPVLVVYDDSDRPSGIPERFSGSNSGNTATLTISRVEAGDEADYYCQVWDSSSDHYVFGTGTKVTVLRTVAAPSVFIFPPSDEKLKSGTASVVCLLNNFYPREAKVQWKVDNALQSGNSQESVTEQDSKDSTYSLSSTLTLSKADYEKHKVYACEVTHQGLSSPVTKSFNRGEC heavy 1: not shown heavy 2: not shown light 2: EVQLVESGGGLVQPGGSLRLSCAASGYTFTNYGMNWVRQAPGKGLEWVGWINTYTGEPTYAADFKRRFTFSLDTSKSTAYLQMNSLRAEDTAVYYCAKYPHYYGSSHWYFDVWGQGTLVTVSSASVAAPSVFIFPPSDEQLKSGTASVVCLLNNFYPREAKVQWKVDNALQSGNSQESVTEQDSKDSTYSLSSTLTLSKADYEKHKVYACEVTHQGLSSPVTKSFNRGEC | 3 nM | 17 nM
Ang2VEGF-0282 (bispecific antibody, human IgG1, kappa, Bivalent CrossMab; knobs-into-holes) light 1: QPGLTQPPSVSVAPGQTARITCGGNNIGSKSVHWYQQKPGQAPVLVVYDDSDRPSGIPERFSGSNSGNTATLTISRVEAGDEADYYCQVWDSSSDHYVFGTGTKVTVLRTVAAPSVFIFPPSDKRLKSGTASVVCLLNNFYPREAKVQWKVDNALQSGNSQESVTEQDSKDSTYSLSSTLTLSKADYEKHKVYACEVTHQGLSSPVTKSFNRGEC heavy 1: not shown heavy 2: not shown light 2: EVQLVESGGGLVQPGGSLRLSCAASGYTFTNYGMNWVRQAPGKGLEWVGWINTYTGEPTYAADFKRRFTFSLDTSKSTAYLQMNSLRAEDTAVYYCAKYPHYYGSSHWYFDVWGQGTLVTVSSASVAAPSVFIFPPSDEELKSGTASVVCLLNNFYPREAKVQWKVDNALQSGNSQESVTEQDSKDSTYSLSSTLTLSKADYEKHKVYACEVTHQGLSSPVTKSFNRGEC | 4 nM | 14 nM
Ang2VEGF-0284 (bispecific antibody, human IgG1, kappa, Bivalent CrossMab; knobs-into-holes) light 1: QPGLTQPPSVSVAPGQTARITCGGNNIGSKSVHWYQQKPGQAPVLVVYDDSDRPSGIPERFSGSNSGNTATLTISRVEAGDEADYYCQVWDSSSDHYVFGTGTKVTVLRTVAAPSVFIFPPSDKRLKSGTASVVCLLNNFYPREAKVQWKVDNALQSGNSQESVTEQDSKDSTYSLSSTLTLSKADYEKHKVYACEVTHQGLSSPVTKSFNRGEC heavy 1: not shown heavy 2: not shown light 2: EVQLVESGGGLVQPGGSLRLSCAASGYTFTNYGMNWVRQAPGKGLEWVGWINTYTGEPTYAADFKRRFTFSLDTSKSTAYLQMNSLRAEDTAVYYCAKYPHYYGSSHWYFDVWGQGTLVTVSSASVAAPSVFIFPPSDEQLKSGTASVVCLLNNFYPREAKVQWKVDNALQSGNSQESVTEQDSKDSTYSLSSTLTLSKADYEKHKVYACEVTHQGLSSPVTKSFNRGEC | 4 nM | 13 nM
Ang2VEGF-0397 (bispecific antibody, human IgG1, kappa, Bivalent CrossMab; knobs-into-holes) light 1: QPGLTQPPSVSVAPGQTARITCGGNNIGSKSVHWYQQKPGQAPVLVVYDDSDRPSGIPERFSGSNSGNTATLTISRVEAGDEADYYCQVWDSSSDHYVFGTGTKVTVLRTVAAPSVFIFPPSDEKLKSGTASVVCLLNNFYPREAKVQWKVDNALQSGNSQESVTEQDSKDSTYSLSSTLTLSKADYEKHKVYACEVTHQGLSSPVTKSFNRGEC heavy 1: not shown heavy 2: not shown light 2: EVQLVESGGGLVQPGGSLRLSCAASGYTFTNYGMNWVRQAPGKGLEWVGWINTYTGEPTYAADFKRRFTFSLDTSKSTAYLQMNSLRAEDTAVYYCAKYPHYYGSSHWYFDVWGQGTLVTVSSASVAAPSVFIFPPSDEQLKSGTASVVCLLNNFYPREAKVQWKVDNALQSGNSQESVTEQDSKDSTYSLSSTLTLSKADYEKHKVYACEVTHQGLSSPVTKSFNRGEC | 4 nM | 14 nM
Ang2VEGF-0394 (bispecific antibody, human IgG1, kappa, Bivalent CrossMab; knobs-into-holes) light 1: QPGLTQPPSVSVAPGQTARITCGGNNIGSKSVHWYQQKPGQAPVLVVYDDSDRPSGIPERFSGSNSGNTATLTISRVEAGDEADYYCQVWDSSSDHYVFGTGTKVTVLRTVAAPSVFIFPPSDKQLKSGTASVVCLLNNFYPREAKVQWKVDNALQSGNSQESVTEQDSKDSTYSLSSTLTLSKADYEKHKVYACEVTHQGLSSPVTKSFNRGEC heavy 1: not shown heavy 2: not shown light 2: EVQLVESGGGLVQPGGSLRLSCAASGYTFTNYGMNWVRQAPGKGLEWVGWINTYTGEPTYAADFKRRFTFSLDTSKSTAYLQMNSLRAEDTAVYYCAKYPHYYGSSHWYFDVWGQGTLVTVSSASVAAPSVFIFPPSDEQLKSGTASVVCLLNNFYPREAKVQWKVDNALQSGNSQESVTEQDSKDSTYSLSSTLTLSKADYEKHKVYACEVTHQGLSSPVTKSFNRGEC | 3 nM | 12 nM
Ang2VEGF-0274 (bispecific antibody, human IgG1, kappa, Bivalent CrossMab; knobs-into-holes) light 1: QPGLTQPPSVSVAPGQTARITCGGNNIGSKSVHWYQQKPGQAPVLVVYDDSDRPSGIPERFSGSNSGNTATLTISRVEAGDEADYYCQVWDSSSDHYVFGTGTKVTVLRTVAAPSVFIFPPSDKKLKSGTASVVCLLNNFYPREAKVQWKVDNALQSGNSQESVTEQDSKDSTYSLSSTLTLSKADYEKHKVYACEVTHQGLSSPVTKSFNRGEC heavy 1: not shown heavy 2: not shown light 2: EVQLVESGGGLVQPGGSLRLSCAASGYTFTNYGMNWVRQAPGKGLEWVGWINTYTGEPTYAADFKRRFTFSLDTSKSTAYLQMNSLRAEDTAVYYCAKYPHYYGSSHWYFDVWGQGTLVTVSSASVAAPSVFIFPPSDEQLKSGTASVVCLLNNFYPREAKVQWKVDNALQSGNSQESVTEQDSKDSTYSLSSTLTLSKADYEKHKVYACEVTHQGLSSPVTKSFNRGEC | 3 nM | 17 nM
Ang2VEGF-0285 (bispecific antibody, human IgG1, kappa, Bivalent CrossMab; knobs-into-holes) light 1: QPGLTQPPSVSVAPGQTARITCGGNNIGSKSVHWYQQKPGQAPVLVVYDDSDRPSGIPERFSGSNSGNTATLTISRVEAGDEADYYCQVWDSSSDHYVFGTGTKVTVLRTVAAPSVFIFPPSDKRLKSGTASVVCLLNNFYPREAKVQWKVDNALQSGNSQESVTEQDSKDSTYSLSSTLTLSKADYEKHKVYACEVTHQGLSSPVTKSFNRGEC heavy 1: not shown heavy 2: not shown light 2: EVQLVESGGGLVQPGGSLRLSCAASGYTFTNYGMNWVRQAPGKGLEWVGWINTYTGEPTYAADFKRRFTFSLDTSKSTAYLQMNSLRAEDTAVYYCAKYPHYYGSSHWYFDVWGQGTLVTVSSASVAAPSVFIFPPSDEELKSGTASVVCLLNNFYPREAKVQWKVDNALQSGNSQESVTEQDSKDSTYSLSSTLTLSKADYEKHKVYACEVTHQGLSSPVTKSFNRGEC | 4 nM | 14 nM
Ang2VEGF-0286 (bispecific antibody, human IgG1, kappa, Bivalent CrossMab; knobs-into-holes) light 1: QPGLTQPPSVSVAPGQTARITCGGNNIGSKSVHWYQQKPGQAPVLVVYDDSDRPSGIPERFSGSNSGNTATLTISRVEAGDEADYYCQVWDSSSDHYVFGTGTKVTVLRTVAAPSVFIFPPSDKKLKSGTASVVCLLNNFYPREAKVQWKVDNALQSGNSQESVTEQDSKDSTYSLSSTLTLSKADYEKHKVYACEVTHQGLSSPVTKSFNRGEC heavy 1: not shown heavy 2: not shown light 2: EVQLVESGGGLVQPGGSLRLSCAASGYTFTNYGMNWVRQAPGKGLEWVGWINTYTGEPTYAADFKRRFTFSLDTSKSTAYLQMNSLRAEDTAVYYCAKYPHYYGSSHWYFDVWGQGTLVTVSSASVAAPSVFIFPPSDEELKSGTASVVCLLNNFYPREAKVQWKVDNALQSGNSQESVTEQDSKDSTYSLSSTLTLSKADYEKHKVYACEVTHQGLSSPVTKSFNRGEC | 4 nM | 12 nM
Ang2VEGF-0395 (bispecific antibody, human IgG1, kappa, Bivalent CrossMab; knobs-into-holes) light 1: QPGLTQPPSVSVAPGQTARITCGGNNIGSKSVHWYQQKPGQAPVLVVYDDSDRPSGIPERFSGSNSGNTATLTISRVEAGDEADYYCQVWDSSSDHYVFGTGTKVTVLRTVAAPSVFIFPPSDKQLKSGTASVVCLLNNFYPREAKVQWKVDNALQSGNSQESVTEQDSKDSTYSLSSTLTLSKADYEKHKVYACEVTHQGLSSPVTKSFNRGEC heavy 1: not shown heavy 2: not shown light 2: EVQLVESGGGLVQPGGSLRLSCAASGYTFTNYGMNWVRQAPGKGLEWVGWINTYTGEPTYAADFKRRFTFSLDTSKSTAYLQMNSLRAEDTAVYYCAKYPHYYGSSHWYFDVWGQGTLVTVSSASVAAPSVFIFPPSDEQLKSGTASVVCLLNNFYPREAKVQWKVDNALQSGNSQESVTEQDSKDSTYSLSSTLTLSKADYEKHKVYACEVTHQGLSSPVTKSFNRGEC | 4 nM | 15 nM
